Consider one substance from US20130172283A1, “LYOPHILIZED FORMULATION OF PECTIN-ADRIAMYCIN CONJUGATE AND PREPARATION METHOD THEREOF” (CHONGQING LUMMY PHARMACEUTICAL CO., LTD., priority 2010, published 2013).

The nature of one data set: solubility tests of PAC. It is filed as physicochemical. As to conditions: repeated solubility tests. An excerpt: Insoluble drugs have two major problems in clinical application, one problem is low bioavailability due to low solubility of the drugs, and the other problem is that conventional formulation methods have certain restriction on application of the insoluble drugs.

Data set [1] can be described thus: monitoring of drug loading rate in long-term storage (UV absorbance at 480 nm). Format: physicochemical. As to conditions: initial, bulk drug. The method, then:
10.7 mg adriamycin hydrochloride was precisely weighed and placed in a 100 mL volumetric flask, diluted with sterile water for injection to volume as stock solution, and underwent ultrasonic treatment for 5 min for even mixing; 0.2 ml, 0.4 ml, 0.8 ml, 1.2 ml, 1.6 ml and 2 ml adriamycin hydrochloride stock solution were pipetted and placed in 5 ml volumetric flasks respectively, diluted with sterile water for injection to volume, and shook up. Using ultraviolet spectrophotometry, absorbance A values of adriamycin solution were determined at the series of concentration gradients at 480 nm, and linear regression was performed by taking absorbance A as a vertical coordinate and mass concentration C (mg·mL-1) of adriamycin as horizontal coordinate to obtain an equation: A=0.0178C+0.0284, R2=0.9994 (n=3).
1 mL PAC nanosuspension (prepared according to a preferable solution) was precisely pipetted and placed in a 50 mL volumetric flask (concentration of the PAC nanosuspension was 7.76 mg/mL), diluted with sterile water for injection to volume and shook up, and then proper amount was pipetted to determine absorbance at 480 nm so as to obtain adriamycin concentration Cx with the standard curve. Drug loading rate of the PAC=(Cx/7.76)*100%. […]

For the substance pectin-adriamycin conjugate [PAC], the solubility result in “solubility tests of PAC” is “insoluble”. Also, the drug loading rate in data set [1] came out at 25.8%.
